Protein stability index data for 97 variants are collected here from the supplement of paper PMC10567573.

B1: KRT15 (parent)
chain: SNFHINVEESVDGQVVSSHKREI
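Note: lentivirally expressed fusions sorted by FACS into six bins by GFP to DsRed ratio, PSI derived from sequencing read proportions per bin multiplied by bin number.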

This data set covers variants of B1. Kind of data set: protein stability index of a GFP-peptide fusion (GPS, HEK-293T) (PSI 1-6); higher = more stable. Conditions: c terminus: native.
Consider SNFHINVEESVDGQVVSSHPREI [K20P], for which the protein stability index turned out to be 1.94.
As to SNFHINVEESVDGQVVSSHCREI [K20C], the protein stability index stood at 2.39.
Regarding SNFHINVEESVDGQVVSSHIREI [K20I], the protein stability index was found to be 2.45.
Regarding SNFHINVEESVDGQVVSSHGREI [K20G], the protein stability index was 3.06.
SNFHINVEESVDGQVVSSHTREI [K20T]: the protein stability index was 3.08.
In the case of SNFHINVEESVDGQVVSSHVREI [K20V] it was 2.4.
Consider SNFHINVEESVDGQVVSSHFREI [K20F], for which the protein stability index amounted to 2.07.
With SNFHINVEESVDGQVVSSHQREI [K20Q], the protein stability index turned out to be 2.77.
For SNFHINVEESVDGQVVSSHRREI [K20R], the protein stability index worked out at 3.06.
Take SNFHINVEESVDGQVVSSHHREI [K20H]: the protein stability index came to 2.51.
For the variant SNFHINVEESVDGQVVSSHNREI [K20N], the protein stability index came to 5.38.
In the case of SNFHINVEESVDGQVVSSHAREI [K20A] it was 3.58.
In the case of SNFHINVEESVDGQVVSSHWREI [K20W] it was 3.4.
Take SNFHINVEESVDGQVVSSHMREI [K20M]: the protein stability index amounted to 3.15.
For SNFHINVEESVDGQVVSSHDREI [K20D], the protein stability index turned out to be 3.86.
Regarding SNFHINVEESVDGQVVSSHEREI [K20E], the protein stability index was 1.49.
Take SNFHINVEESVDGQVVLSHKREI [S17L]: the protein stability index was found to be 2.06.
Consider SNFHINVEESVDGQVVASHKREI [S17A], for which the protein stability index is 2.37.
Regarding SNFHINVEESVDGQVVWSHKREI [S17W], the protein stability index is 4.29.
To SNFHINVEESVDGQVVVSHKREI [S17V] belongs 2.42; to SNFHINVEESVDGQVVGSHKREI [S17G], 2.73.
In the case of SNFHINVEESVDGQVVRSHKREI [S17R], the protein stability index worked out at 1.7.
In the case of SNFHINVEESVDGQVVFSHKREI [S17F] it was 2.65; in that of SNFHINVEESVDGQVVYSHKREI [S17Y], 2.27.
For SNFHINVEESVDGQVVTSHKREI [S17T], the protein stability index came to 2.5.
Consider SNFHINVEESVDGQVVQSHKREI [S17Q], for which the protein stability index is 1.68.
Take SNFHINVEESVDGQVVKSHKREI [S17K]: the protein stability index came to 1.82.
Turning to SNFHINVEESVDGQVVESHKREI [S17E], the protein stability index was 2.91.
For SNFHINVEESVDGQVVPSHKREI [S17P], the protein stability index stood at 1.43.
As to SNFHINVEESVDGQVVNSHKREI [S17N], the protein stability index is 1.91.
With SNFHINVEESVDGQVVMSHKREI [S17M], the protein stability index is 1.29.
SNFHINVEESVDGQVVHSHKREI [S17H]: the protein stability index is 2.17.
Consider SNFHINVEESVDGQVVDSHKREI [S17D], for which the protein stability index came to 1.8.
To SNFHINVEESVDGQVVISHKREI [S17I] belongs 1.12.
With SNFHINVEESYDGQVVSSHKREI [V11Y], the protein stability index worked out at 1.44.
Take SNFHINVEESVDGQVVSSHKREH [I23H]: the protein stability index is 4.13.
SNFHINVEESVDGQVVSSHKRED [I23D]: the protein stability index is 4.89.
Turning to SNFHINVEESVDGQVVSSHKREG [I23G], the protein stability index was found to be 3.55.
SNFHINVEESVDGQVVSSHKREC [I23C]: the protein stability index was 4.94.
Take SNFHINVEESVDGQVVSSHKREM [I23M]: the protein stability index was 2.52.
To SNFHINVEESVDGQVVSSHKREA [I23A] belongs 4.14; to SNFHINVEESVDGQVVSSHKREE [I23E], 2.44.
SNFHINVEESVDGQVVSSHKREP [I23P]: the protein stability index worked out at 3.83.
For the variant SNFHINVEESVDGQVVSSHKREK [I23K], the protein stability index worked out at 5.16.
Regarding SNFHINVEESVDGQVVSSHKREF [I23F], the protein stability index worked out at 4.74.
For the variant SNFHINVEESVDGQVVSSHKREN [I23N], the protein stability index is 4.98.
As for SNFHINVEESVDHQVVSSHKREI [G13H], the protein stability index came to 1.64.
With SNFHINVEESVDSQVVSSHKREI [G13S], the protein stability index amounted to 1.81.
With SNFHINVEESVDPQVVSSHKREI [G13P], the protein stability index stood at 2.19.
To SNFHINVEESVDQQVVSSHKREI [G13Q] belongs 1.96; to SNFHINVEESVDTQVVSSHKREI [G13T], 2.18; to SNFHINVEESVDFQVVSSHKREI [G13F], 1.86.
Take SNFHINVEESVDLQVVSSHKREI [G13L]: the protein stability index is 1.78.
SNFHINVEESVDIQVVSSHKREI [G13I]: the protein stability index is 2.02.
To SNFHINVEESVDAQVVSSHKREI [G13A] belongs 2.73.
For the variant SNFHINVEESVDYQVVSSHKREI [G13Y], the protein stability index is 2.59.
Take SNFHINVEESVDEQVVSSHKREI [G13E]: the protein stability index was determined as 1.89.
SNFHINVEESVDKQVVSSHKREI [G13K]: the protein stability index was determined as 2.29.
For the variant SNFHINVEESVDNQVVSSHKREI [G13N], the protein stability index is 2.3.
Take SNFHINVEESVDRQVVSSHKREI [G13R]: the protein stability index is 2.35.
For SNFHINVEESVDCQVVSSHKREI [G13C], the protein stability index came out at 1.98.
Regarding SNFHINVEESVDVQVVSSHKREI [G13V], the protein stability index was 1.55.
In the case of SNFHINVEESVDDQVVSSHKREI [G13D], the protein stability index turned out to be 2.36.
Consider SNFHINVEESVDGQVVSSHKVEI [R21V], for which the protein stability index amounted to 3.79.
To SNFHINVEESVDGQVVSSHKYEI [R21Y] belongs 4.83; to SNFHINVEESVDGQVVSSHKFEI [R21F], 4.32.
Consider SNFHINVEESVDGQVVSSHKQEI [R21Q], for which the protein stability index stood at 4.48.
As for SNFHINVEESVDGQVVSSHKDEI [R21D], the protein stability index is 4.89.
On to SNFHINVEESVDGQVVSSHKHEI [R21H], for which the protein stability index amounted to 3.9.
On to SNFHINVEESVDGQVVSSHKPEI [R21P], for which the protein stability index was determined as 3.5.
Regarding SNFHINVEESVDGQVVSSHKEEI [R21E], the protein stability index came out at 5.02.
Regarding SNFHINVEESVDGQVVSSHKKEI [R21K], the protein stability index was 4.88.
Regarding SNFHINVEESVDGQVVSSHKGEI [R21G], the protein stability index was 4.9.
Regarding SNFHINVEESVDGQVVSSHKCEI [R21C], the protein stability index came out at 4.43.
With SNFHINVEESVDGQVVSSHKTEI [R21T], the protein stability index came to 4.4.
Take SNFHINVEESVDGQVVSSHKAEI [R21A]: the protein stability index worked out at 4.45.
Regarding SNFHINVEESVDGQVVSSHKLEI [R21L], the protein stability index was 4.52.
For the variant SNFHINVEESVDGQVVSSHKSEI [R21S], the protein stability index was found to be 5.13.
Regarding SNFHINVEESVDGQVVSSHKIEI [R21I], the protein stability index turned out to be 3.16.
As to SNFHINVEESVDGQVVSSHKMEI [R21M], the protein stability index was 4.91.
Consider SNFHINVEESVDGQVVSSHKWEI [R21W], for which the protein stability index turned out to be 3.38.
As to SNFHINVEESVDGQVVSSHKNEI [R21N], the protein stability index is 3.89.
In the case of SNFHINVEESVDGCVVSSHKREI [Q14C] it was 2.21.
SNFHINVEESVDGIVVSSHKREI [Q14I]: the protein stability index is 1.55.
Regarding SNFHINVEESVDGYVVSSHKREI [Q14Y], the protein stability index came out at 1.72.
For SNFHINVEESVDGDVVSSHKREI [Q14D], the protein stability index was found to be 2.33.
For the variant SNFHINVEESVDGAVVSSHKREI [Q14A], the protein stability index was 2.04.
As to SNFHINVEESVDGPVVSSHKREI [Q14P], the protein stability index came to 2.34.
In the case of SNFHINVEESVDGFVVSSHKREI [Q14F] it was 1.99; in that of SNFHINVEESVDGRVVSSHKREI [Q14R], 2.01.
For the variant SNFHINVEESVDGHVVSSHKREI [Q14H], the protein stability index stood at 1.6.
For the variant SNFHINVEESVDGKVVSSHKREI [Q14K], the protein stability index is 2.35.
In the case of SNFHINVEESVDGSVVSSHKREI [Q14S] it was 1.94; in that of SNFHINVEESVDGTVVSSHKREI [Q14T], 2.12; in that of SNFHINVEESVDGNVVSSHKREI [Q14N], 2.05.
As to SNFHINVEESVDGLVVSSHKREI [Q14L], the protein stability index was 1.65.
As for SNFHINVEESVDGMVVSSHKREI [Q14M], the protein stability index was 1.32.
